{"source": "patent US20080213256A1", "about": "(MICROMET, published 2008)", "key": {"human CD3 complex": {"molecular_target": "human CD3 complex (human, UniProt P07766 23-207; P04234 22-171; P09693 23-182)", "test": "cell-based or functional assay"}, "CD19": {"molecular_target": "T1, CD19 (human, UniProt P15391 20-556)", "T1 construct": "whole, on cells; also called CD19 on CD19 positive Nalm 6 cells; NALM-6", "T1 sequence (looked up)": "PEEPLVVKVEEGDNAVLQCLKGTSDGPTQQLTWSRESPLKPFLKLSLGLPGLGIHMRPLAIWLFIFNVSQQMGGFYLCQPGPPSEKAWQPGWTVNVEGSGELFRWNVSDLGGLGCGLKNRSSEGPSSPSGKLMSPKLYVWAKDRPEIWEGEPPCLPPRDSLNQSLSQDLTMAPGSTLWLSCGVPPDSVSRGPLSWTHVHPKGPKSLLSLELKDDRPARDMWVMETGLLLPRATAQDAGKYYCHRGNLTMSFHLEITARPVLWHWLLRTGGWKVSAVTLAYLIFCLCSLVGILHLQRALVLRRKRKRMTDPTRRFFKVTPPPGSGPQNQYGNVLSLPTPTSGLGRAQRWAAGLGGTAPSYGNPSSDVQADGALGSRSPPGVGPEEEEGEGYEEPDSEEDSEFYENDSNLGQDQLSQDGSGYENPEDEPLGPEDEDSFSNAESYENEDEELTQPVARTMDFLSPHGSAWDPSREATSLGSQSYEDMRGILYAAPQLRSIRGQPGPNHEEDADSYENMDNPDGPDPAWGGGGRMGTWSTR", "test": "FACS on Nalm6 cells, detection via His tag", "experimental": "CD19 positive Nalm 6 cells (human B cell precursor leukaemia) and CD3 positive Jurkat cells (human T cell leukemia) were used. 200,000 Nalm 6 cells and 200,000 Jurkat cells were incubated with 50 μl the pure cell culture supernatant of CHO cells transfected with the anti-CD19xhum. anti-CD3 specific polypeptide for 30 min on ice. The cells were washed twice in PBS. Then the binding of the construct was detected via its C-terminal Histidin Tag with a murine Penta H is antibody (diluted 1:20 in 50 μl PBS with 2% FCS; Qiagen) followed by a washing step and a Phycoerythrin conjugated Fc gamma specific antibody (Dianova), diluted 1:100 in 50 μl PBS with 2% FCS (FIG. 2A, thick line). As negative control fresh cell culture medium instead of cell culture supernatant was used (FIG. 2, thin line).\nCells were analysed by flow cytometry on a FACS-Calibur (Becton Dickinson, Heidelberg). FACS staining and measuring of the fluorescence intensity were performed as described in Current Protocols in Immunology (Coligan, Kruisbeek, Margulies, Shevach and Strober, Wiley-Interscience, 2002). The binding activity of the bispecific binding molecule was compared to the binding activity of the corresponding control bispecific antibody with the humanized OKT3 part as described in prior art."}, "EpCAM [1]": {"molecular_target": "T2, EpCAM (UniProt P16422 24-314, limits assumed)", "T2 construct": "whole, on cells; also called EpCAM on EpCAM positive Kato III cells", "T2 sequence (looked up)": "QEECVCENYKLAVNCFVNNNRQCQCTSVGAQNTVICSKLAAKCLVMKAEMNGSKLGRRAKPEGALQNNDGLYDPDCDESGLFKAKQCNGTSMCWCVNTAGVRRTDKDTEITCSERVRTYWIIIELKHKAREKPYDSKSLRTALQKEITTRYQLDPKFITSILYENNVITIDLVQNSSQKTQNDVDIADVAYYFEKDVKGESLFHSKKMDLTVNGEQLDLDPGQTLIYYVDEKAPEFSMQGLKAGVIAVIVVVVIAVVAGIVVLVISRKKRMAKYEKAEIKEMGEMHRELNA", "test": "FACS on KatoIII cells, detection via His tag"}, "EpCAM [2]": {"molecular_target": "T2, EpCAM", "test": "FACS on Kato III cells, CHO supernatant (FIG. 2C)"}}}
{"binder": "bispecific anti-CD19xhum. anti-CD3 antibody construct (SEQ ID NO.: 20) (bispecific antibody, Bispecific single chain Fv made in CHO cells; FACS used raw culture supernatant; the cytotoxicity assay used purified protein; also called anti-CD19xhum. anti-CD3 (improved hum. OKT3); bispecific humanized improved CD3 (hum. anti-CD3)) DIQLTQSPASLAVSLGQRATISCKASQSVDYDGDSYLNWYQQIPGQPPKLLIYDASNLVSGIPPRFSGSGSGTDFTLNIHPVEKVDAATYHCQQSTEDPWTFGGGTKLEIKGGGGSGGGGSGGGGSQVQLQQSGAELVRPGSSVKISCKASGYAFSSYWMNWVKQRPGQGLEWIGQIWPGDGDTNYNGKFKGKATLTADESSSTAYMQLSSLASEDSAVYFCARRETTTVGRYYYAMDYWGQGTTVTVSSGGGGSQVQLVQSGGGVVQPGRSLRLSCKSSGYTFTRYTMHWVRQAPGKGLEWIGYINPSRGYTNYNQKVKDRFTISRDNSKNTAFLQMDSLRPEDTGVYFCARYYDDHYCLDYWGQGTPVTVSSVEGGSGGSGGSGGSGGVDDIQMTQSPSSLSASVGDRVTITCRASSSVSYMNWYQQTPGKAPKRWIYDTSKVASGVPSRFSGSGSGTDYTFTISSLQPEDIATYYCQQWSSNPLTFGQGTKLQIT", "values": [{"measurement": "cytotoxic activity (EC50), calcein release from NALM-6 target cells with CD4-positive CB15 T-cells", "setting": "human CD3 complex", "result": 0.05, "unit": "ng/mL"}, {"measurement": "binding result", "setting": "CD19", "result": "binds"}]}
{"binder": "bispecific anti-EpCAM (3-1)x hum. anti-CD3 antibody construct (SEQ ID NO.: 34) (bispecific antibody, Bispecific single chain Fv, tested as CHO culture supernatant) ELVMTQSPSYLAASPGETITINCRASKSISKYLAWYQEKPGKTNKLLIYSGSTLQSGIPSRFSGSGSGTDFTLTISSLEPEDFAMYYCQQHNEYPYTFGGGTKLEIKGGGGSGGGGSGGGGSEVQLLEQSGAELVKPGASVKISCKASGYAFTNYWLGWVKQRPGHGLEWIGDLFPGSGNTHYNERFRGKATLTADKSSSTAFMQLSSLTSEDSAVYFCARLRNWDEAMDYWGQGTTVTVSSGGGGSQVQLVQSGGGVVQPGRSLRLSCKSSGYTFTRYTMHWVRQAPGKGLEWIGYINPSRGYTNYNQKVKDRFTISRDNSKNTAFLQMDSLRPEDTGVYFCARYYDDHYCLDYWGQGTPVTVSSVEGGSGGSGGSGGSGGVDDIQMTQSPSSLSASVGDRVTITCRASSSVSYMNWYQQTPGKAPKRWIYDTSKVASGVPSRFSGSGSGTDYTFTISSLQPEDIATYYCQQWSSNPLTFGQGTKLQIT", "values": [{"measurement": "binding result", "setting": "EpCAM [1]", "result": "binds"}]}
{"binder": "bispecific anti-EpCAM (5-10)x hum. anti-CD3 antibody construct (SEQ ID NO.: 36) (bispecific antibody, Bispecific single chain Fv, tested as CHO culture supernatant) ELVMTQSPSSLTVTAGEKVTMSCKSSQSLLNSGNQKNYLTWYQQKPGQPPKLLIYWASTRESGVPDRFTGSGSGTDFTLTISSVQAEDLAVYYCQNDYSYPLTFGAGTKLEIKGGGGSGGGGSGGGGSEVQLLEQSGAELVRPGTSVKISCKASGYAFTNYWLGWVKQRPGHGLEWIGDIFPGSGNIHYNEKFKGKATLTADKSSSTAYMQLSSLTFEDSAVYFCARLRNWDEPMDYWGQGTTVTVSSGGGGSQVQLVQSGGGVVQPGRSLRLSCKSSGYTFTRYTMHWVRQAPGKGLEWIGYINPSRGYTNYNQKVKDRFTISRDNSKNTAFLQMDSLRPEDTGVYFCARYYDDHYCLDYWGQGTPVTVSSVEGGSGGSGGSGGSGGVDDIQMTQSPSSLSASVGDRVTITCRASSSVSYMNWYQQTPGKAPKRWIYDTSKVASGVPSRFSGSGSGTDYTFTISSLQPEDIATYYCQQWSSNPLTFGQGTKLQIT", "values": [{"measurement": "binding result", "setting": "EpCAM [2]", "result": "binds"}]}
